Assay results from the domain aggregation screens of Martell et al. (2025).

assay: soluble fraction after stress (log2 fold change); higher = more stays soluble; pooled small domains, quantitative proteomics; conditions: stress: pH 4
Procedure, shortened: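 Values are on a log2 scale, where higher means more of the domain stayed soluble after pH 4 stress. They are fold changes in the soluble amount of each domain from pooled custom libraries, measured by high-throughput quantitative proteomics. The fold change is taken to reflect aggregation propensity.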

| Sequence | soluble fraction (log2) |
| --- | --- |
| HMKKYLIIDAANEKIIFKIIDNNKTYTNDYENSRKNFDRFAVLLFNFLNKNMISFDTIDKAL | -0.19 |
| HMKLARGEFEIMAKFIKEISGISLEQNKTYLIESRLSDLAESEGVKTFSDFFFKAKFNKILKEKIIDAI | -0.957 |
| HMKLHFTINGVHYTWYKQFIRGIQIRELGNIPREDELYLDLPDGWKDDFIEDDEIVDLARPGVEHFISRAK | 0.321 |
| HMKLIIVPNLVGQSRRSVEISLQQIGLRIDTVYTEFNPDYPKGTVAWQFPKSGDHIKKGMGLQITVSQG | 0.22 |
| HMKLINEDLNNEIVFEENKVNLLVIENKKKFVQFIQEIIKQINGDEGKFSLFDINTELKIHDKIDII | -0.0802 |
| HMKLIPLTDMRGQLRSGAPLPWGVRDAQGNLLLGKGHVIASDDMLEALLARGMFVDAEEAKAARG | 0.105 |
| HMKLISVAVMRASDAAEIAGGTDSKTLMYRAGLGLFQSWDWHGKIDIVTGSGNNAGDGYVLALLL | -0.548 |
| HMKLNKRQYAYQVIRSRILDGTYVPGQRIIIDQIAKEVNSSHIPVREAIHQLESEQLIDYEPNIGAIVKG | 0.181 |
| HMKLSALRDKIKEHLLRQIQNGELQVGKTINLAALSRVTGISVTPIREALTQLEQAQVIQAVPNRGFVVA | 0.184 |
| HMKLSIGGTIEKLRRNKGLSHQQLANALGVTPDTVEKWEINAAYPDITLLSPIARLLGTTLDALLMF | -0.828 |
| HMKLSKLTKPELDEIFRNANFTEEEEKVFWLLARGKSLEQISAKTFLPIATVNRRVKSIKDKIG | 0.34 |
| HMKLTKPKLIQLIHIAKSKLNMDELSYRVLLDNLTGKTSTTKMTVGELLKVYESMKDKGFKPQV | 0.104 |
| HMKLTTRQTEIINIVKAEQPISGEKIAQNLGLSRATLRNDLSILTMTGLLDAKPKVGYFYTGQ | 0.0805 |
| HMKLVESALSILEEAVDRDFHGNLGDAARYFDIPYQTIYSWLKSRKRVPSLRALEPVLEKLGVSFTT | -0.479 |
| HMKLVTIPNVIGKTKEDAMKTLKDLGVTVTVETKESEKDDGTVIAQSKAEGTKLTAGENVTITVSKKKK | -0.487 |
| HMKMATITKRTNPSGAVVYRAQVRVKREGYPPYSESRTFSKKSLATEWAKRREFEIETNPDLLFN | 0.0738 |
| HMKMLEINDNDSVGLKNLKTQYNHNQKVIENFQLEINKVINDGELPDKYLLDGMEKYQKLNMQIMSTIEKQ | 0.221 |
| HMKMPNGYGSVYKLSGNRRKPWAARVTDGWVNDTKTKKSKQKYKFIGFYETRKEALLALADYNANP | 0.22 |
| HMKMSLKENLLELLQKSSGEFLSGERAAETLGVSRTAVWKAVTSLKNEGYNIESVTNRGYRFS | 0.395 |
| HMKNANGYGSITKLKGNRRKPYMVRITVGRDENGFPIRKVLGYYSSKANAVAALSDYNREPYDI | -0.281 |
| HMKNENSLLVSRLAEEKIINRAKLVLMEYLKLSEPQAHRYIEKQAMDLQISRAEVAARVLETYE | 0.101 |
| HMKNEVENLSYMINRIIEYRDLNNLSNKNLANKIGISEALLSYILNGRRKLSKEIQRKIALFLLND | -0.337 |
| HMKNFAPVWGEEGAEFGKEVDTGFRLRIVEKEKDVNDLFEVIQKHTIQSQWKPGSTGTESIYKRI | -1.35 |
| HMKNHIEERRKARGMTQQQLASELGVSRQTIISLENGKYNPSILLAHSIARLFGERIEDIFILR | -0.354 |
| HMKNINTNIGKNLKRIRKLRGLTIDALATSSGVSKSMISEIERGIRNPSITIIWSLANALKTPLNYFLKE | ≥ 0.43 |
| HMKNKFYEEFSDYIFKHTGIHYAEANYYQLDARINKLMKFLETSDENDVLKAIQGGAVKDQRVHQMIVDLA | -1.27 |

| Sequence | soluble fraction (log2) |
| --- | --- |
| HMKNKRERLGIISEILRMQVIGSQEELLDILRAKGYDVTQATLSRDLKVLKVAKTPLSNGAYKYVLPPQ | ≥ 0.43 |
| HMKNLSQAEFMYLFKILAFGSTDPDNHPEMAATGMEIAKMLQGLLLSGNVLADILRKNQNVQFWL | -0.0785 |
| HMKNNITFSEFLHEVDNGRVIKVNIQGNNITGILADGKSFNTYTPNDPSLIEKLTSKGVSISATPI | 0.127 |
| HMKNNLKGSPIIIAGGYGVGSKENFNLLFDLAKVLNAEVGASRAAVDAGFVEHDRQIGQTGVTVRP | -0.0469 |
| HMKNNYQYIVDQIKQLILDGELIVGDRLPSERDLSEMYQVSRASVREALKALETIGLLESRHGGGNYIVNH | -0.68 |
| HMKNQIGFKIKNARRKASISQADLSAKLGISSSYLNLIESGKRNVNVDLLLKVSDVLNIELKDLSK | -0.437 |
| HMKNTYTVVSGDTLWGIASRKLGGGSNWTKIYDANAATIESVANRRRGGRGSDHGHWIYPGTVLTI | 0.216 |
| HMKNYYRILGLNIDAEYEEIKAAYRILAQRHHPDKGGAAAEFRLIQEAYDILSNPLTKRNYDADLLATLN | -1.08 |
| HMKPDMAVIVGSRTLTFATTTDRQILVLRTDGTMVNRLSMKAGETRTITLPAGVYIVNGKKIIV | 0.22 |
| HMKPFSLESYKAFVVKRLGLFPETSSAQMHDWLKEEYPDFPLITPRTVYNFVMKIRQDYGIAKV | -0.732 |
| HMKPFVVVPIDQVRVGMFIQLDLGWMQHPFPVGSFRVASEAQIDTLRSLDLESVRYLPAKSDPAFQQP | -0.986 |
| HMKPGNFILDLLRTYGQKGTSAQNLMSSSRMFNFSENLIRVTLSRLAARGLIENFERGHYRLAE | 0.0573 |
| HMKPGTIVTGVVVDIKSDVVVVNAGLKSEGIVPIEQFRNDRGELEVAIGDEVKVALDSLENGFGETVLSRE | -1.21 |
| HMKPQKRYLFEEVLTFLKHNSEKSFNYKQLGAAMEISNESDRFTLLETLEELKHQGFVVEKEIGKYQAKE | 0.37 |
| HMKPRVTVVTLGVDDLERAVRFYAEGLGFPTEGIVGREFEFGAVAFFDMQPGLRLALWPRRSLAHDSGLP | -0.328 |
| HMKPSISKIYALWGVLQRSGKIKSQDKAALDAFVRKYTGVDHVKWLDESQARKIIEILKQMIA | 0.104 |
| HMKPSKTDEAEYWLMERLEEGPQPAGDLIRIGEEFGYTPKILRDAGERFNMERYKDGLDHWMWKLPN | 0.349 |
| HMKPVTNHTVKFYVDDVLWKTVTVKHGGNVRLADLPMSDGKTFVGWSESVVNVTKDLTVFALFS | -0.478 |
| HMKPVYNKVEIPRGGEYALVLSDGTKVHLNSMSSLRFPVAFTTGKREVELQGEAYFEVSKTGQPFIVNV | 0.22 |
| HMKQGKGIIVVDGKLMPEDFNVATLSLDEVESITVLKGEKAVALYGEKAKEREVLLITTQKG | -0.316 |
| HMKQKAEVIFVSKTIMEALSKGVRLTPENLKSETELPIDDFYARLKELIDNGSVVESRENGESYLEAGN | -0.938 |
| HMKQLNKRQDDILSLAEKEGYVSVENLAKTFTVSQQTIRRDINYLSDHEFLVRTHGGAFYSSG | -0.288 |
| HMKQNNYATKKELNFFVSRLISLLSYRDFFNPIEKKESMINNIEAIFTRSSLTSQELRTLHGIISNLVE | -1.27 |
| HMKQPNSYGSVHKLPGKRRKPWRVRKTSGWLLDEQSGTVKQQYITIGYYATKQEALIALADYNENP | -0.434 |
| HMKQQFTREQIIELMYKAYKKHKKKLNRVEIKKEKALPSYVTIGRYLNETSIKKIWEIVLSEKE | -0.388 |
| HMKQVEVESVIGKSEEAANSILTKAGLKVNIGYKEDSSKPTDTVLSQDPAPGEKVDEGTTVTIVVNNYKKP | -0.127 |

| Sequence | soluble fraction (log2) |
| --- | --- |
| HMKRANGTGSVFKLNGKRRNPWVARVTQGFDDKGRQKYVNLGYYKTKREAENELLSYNSNPYDAN | -0.0271 |
| HMKREWKDDDPTVPAGWKVAWTTTSDNRAKIAFMSPDKKIFHSRKSALQHMLAAGTYAQSDIEKMTKGL | 0.377 |
| HMKRFSPPSIEEVDSYIREKGYTVDAERFVNFYESKGWYVGKNKMKNWRAAVATWQKEDNKRN | -0.0455 |
| HMKRGDAYASEMIARLKEAHLIVMEGTLYPLLTRLKNDGLLSYRWEESTQGPPRKYYSITPVG | -0.081 |
| HMKRITGHLTEKNKKWYAVINLYDTDGKRKEKWQGLNLDANKGNKREAEHRLRQILDQYNTD | 0.125 |
| HMKRITKKQLSQQLEQFFSSQPGKKLTLKDIFRALHLDTHPLKMLAMDIMEEMAWDDFITKKGENAYQLNT | -0.725 |
| HMKRKAIDQSWQPDKEAIEILSKAGVNEEFIKEEIPEFILYWSEKGEESDTWNSKFIAQVRRQWAKTQH | 0.248 |
| HMKRQATLQIGSKRFGMDDLYFKFTVPFEDSEKLGTATIEAYNLSPATRNSIKKGMPIILNAGYEGDI | -0.103 |
| HMKRTMVEAAMVAKLFNLTVRRIQQLTQDGVLTTELVDKKRRYDLLLTVQKYIAYLQEKVAK | ≥ 0.43 |
| HMKRVVFFNGISWYHRTKELLDDMTTKYGKKGGFATPEEAEKSYWEYEERYKDRQRELQVAYLKN | -0.913 |
| HMKSDEGEIKKIVEEIISKNASVVEDYKKGKEVALQFLVGQGMKATKGSANPELLKKIILENI | -0.105 |
| HMKSDVVFDITDGTVKAMLKFNRSDVTILNNDGKNYYLFTANGEFTFKYQDGSGEYYEKTVYVDWLEDE | -1.56 |
| HMKSFIWKQYTVQITKKNVKNTNVRIKRDNPHVILMSIPYSATYKAGLLALETPHIRHWLDNYERKLKQ | 0.0309 |
| HMKSIEVPNLINMTLRKAKIELIDNEFNLDTVIYEYNPNIREGRVSLQIPESGTILKSGSNISIHISKGIP | -0.32 |
| HMKSIPKIKWNSTLENIKNFEYQDNFFESKEMYDLLVSFYKYGFVIIKNIPTNNNFIVKFANSIGS | 0.121 |
| HMKSISMANGNVQLRINGVLASSLEVAALSPEDIKRVEYHDNPGLRYGEGIDIVLDYITIKRT | -1.16 |
| HMKSISMSKLRHLLQLYVQGRSKKLISEQTGIARNTLKKYIKEFSEAGLSLEALLALSDKELEDLFVK | 0.282 |
| HMKSLPQKLLAYLESQGLTRDEAGEFVKQGLKITSNDVDQIQLLLANTEVIDIKLQEFIAQK | -0.549 |
| HMKSLVDLEISIVKKDMNYFVLPKINGEPLLMERISASEYKDFQLGKLSKEDIFQKHYPDYSEENIKNGRG | 0.19 |
| HMKSSISKNWNPSKDAIEILTRAGIDQEFLENLIPEFVIYWIERSDVLISYNSKFIEHARLKWAQHTAEIQ | -0.106 |
| HMKSTPMYATAIVNIRSKAGTDSEILGKLNPSEEISVISSENGWSKVSYNGKEAYISSNYLSNAKP | 0.22 |
| HMKSVFQPIYEDLLSRIQDGRLLPGMPLPSENALAVQYGTSRPTIRRAIGLLVEKSLVIRQPGIGSIVAS | -0.493 |
| HMKTALQENVRAYRLERKWTQQALAEALEVSVGAVSKWESGVSRPELETLMRLAELFGVSTDALLGF | -1.09 |
| HMKTAWDELNEVIEAYRGQESALIEVLHKAQEIMGYLPRDVQEAIAEGLHVPLNKVYGVVSFYHHFSV | -0.204 |
